Measured values published in the nanobody polyreactivity screen of Harvey et al. (2022).

Assay: yeast display, Sf9 membrane polyspecificity reagent, FACS + sequencing; frameworks hold sequencing errors
How it was run: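 A nanobody's polyreactivity label depends on the gate it was sorted from. Yeast display cells were stained with 10% biotinylated, detergent-solubilized Sf9 membrane reagent for 1 hour at 4 °C, enriched on streptavidin microbeads and sorted by FACS. The low and high (top ~1%) gates were set on anti-HA fluorescence for expression and streptavidin fluorescence for reagent binding.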

Sequence | polyreactivity (PSR sort gate)
QVQLVESGGGLVQAGGSIRLSCAASGSIFAPYAMGSYRQATGKVREFVAAISWSGGGTYYADSVQGRFTISRDNAKNTVNLQMNSLKPEDTAVYYCAAYRNKESIFRTILDYWGQGTQVTVSS | low polyreactivity
QVHLVESVGGLVQAGGSLRLSCASSGFTFPYYAMGWYRQQPGKERELVAAISWIGDSTYYADSVKGRFTISRDNAKNTVYLQMNSLKPEDTAVYYCAAGYKWSIPNRDYDYWGQGTQVTVSS | low polyreactivity
QVQLVESGGGLVQAGGSLRLSCAASGNTFPLYAMGWYRQAPGKEREMVAAITSSAGSTYYADSVKGRFTISRDNAKNTVYLQMNSLKPEDTAVYYCNARRSDGKVVGYSYSHRNVEYWGQGTQVTVSS | low polyreactivity
QVQLVESGGGLVQAGGSLRLSCAASGSILSYYAMGWYRQAPGKERELVAAISKTGGSTYYADSVKGRFTISRDNANNTVYLHMNSLKPEVTAVYYCAAVDNIGRYEYWGQGTQVTVSS | high polyreactivity
QVQHVESGGGIVQAGGSLRLSCAASGSIFVRYAMGWYRQAPGKERESVAAISASGSSTYYADSVKGRFTISRDNAKNTVYLQMNSLKPEDTADYYCNAVRARRFDYWGQGTQVTVSS | high polyreactivity
QVQLVESGGGLVQAGGSLRLSCAASGSTFDYYAMGWYRQAPGKVRELGAAITTSGGSTYYADSVKGRFTISRDNAKNTVYLQINCLKPEDTAVYYCAAESYWYGTSPYYYLYEYDYWGQGTQVTVSS | high polyreactivity
QVQLVESGGGLVQAGGSLRLRCAASGSTFSEYAMGWYRQAPGKERELVAAISYNGGSTYYADSVKGRFTISRDNAKNTVYLQMNSLKPEDTAVYYCNAKLFYDRYDYWGQGTQVTVSS | low polyreactivity
QVHLVESGGGLVQAGGSLRLSCAASGSTILFYAMGWYRQAPGKERELVATISRGGSTYYADSVKGRFTISRDNAKNTVYLEMNSLKPEDTAVYYCAARATRVTIAPRYGYWGQGTQVTVSS | low polyreactivity
QVQLVESGGGLVQAGGSLRLSCAASGLTFSRYAMGWYRQAPGKERELVAAITSIGGSTYYADSVKGRFTISRDNAKNTVYLQMNSLKPEDTAVYYCRAFFRRDYWGQGTQVNVSS | high polyreactivity
QVQLVESGGGLVHAGGSLRLSCAASGRTFNWNAMGWYRQEPGKEREFVASINGGGSSYYADSVKGRFTISRDNAKNTVYLQMNSLKPDDTAVYYCAAPWVGTFVSGRCYYWGQGTHVTVSS | low polyreactivity
QVQLVESGGGLVQAGGSLRLSCDASGSPFEWYGMGWYRQAPGKERELVDAITSGGSTNYADSVKGRFTISRDNAKNTVYLQMNCLKPEVPAVYYCNAEYKPYHYYKAWVYTYDYGYWGQGTQVTVSS | low polyreactivity
QDQLVESGGGLVQAGGSLRLICAASGSTFVQYVMGWYRPAPGKERELVAAITRSCGSTYYADSVKGRFTISRDNAKNTVYLQMNSMKPEDSAVYYCAAYALRIQYDYWGQGTQVTVSS | high polyreactivity
QVQLVESGGGLVQAGGSLRLSCAASGSIFASYVMGWYRQAPGKERELVAAITSRGTSTYYADSVKGRFTISRDNAKNTVYLQMNSLKPEDTAVYYCAARLYGSAPQHEYWGQGTQVTVSS | low polyreactivity
QVQLVESGGGLVQSGGILRLSCAASGSTSPIYAMGWYRQAPGTERELVAAINGVGSTNYADSVKGRFTISRDNAKTTVYFQMNSLKPADTAVYYCAADGTALHEYLGDYDYWGQGTQVTVSS | low polyreactivity
QVQLVESGGGLVQAGGSLRLSCAASGRIFKINAMGWYRQAPGKERELVAGISGSGSDTYYSDSVKGRFTISRDNAKNTVYLQMNSLKPEDTAVYYCAAVAYDWALFYYWGQGTQVTVSS | low polyreactivity
QVQLVESGGGLVQAGGSLRLSCAASGSTFTNNGMGWYRQAPGKERELVATISWDGDSTYYADSVKGRFTISRDNAKNTVYLQMNSLKPEDTAVYYCAADEWGSDSALNFEYWGQGTQVTVSS | low polyreactivity

Sequence | polyreactivity (PSR sort gate)
QVQLVESGGGLVQSGGSLRLSCAASGYIFFFNAMGWYRQAPGKERELVAAITRRGVSTYYADSVKGRCTISRDNAKNTVFLQMNSLKPEDTAVYYCATEHNHLGYYYWGQGTQVTVSS | low polyreactivity
QVQLVESGGGLVQAGGSLRLSCAASGITFLPYAMGWYRPEPGKERELVAAITRGGGSTYADSVKGRFTISRDNAKNTVYLQMNSLKPEDTAVYYCNAKGRGWTAQYDYWGQGTQVTVSS | low polyreactivity
QVQLVESGGGLVQAGGSLRLSCAASGSTFYYYAMGWYRQAPGKEMELVAAINWSGASTYYADSVKGRFTISRDNAKNTVYLQMNSLIPEDTAVYYCAAGYAGGYGVTFDYCGQGTQVTVSS | low polyreactivity
QVQLVESGGGLVQAGGSLRLSCAASGRTFPGYAMGCYRQAPGKERELVATITFSDGSTYYADSVKGRFTISRDNAKITVYLQMNSLKPEDTAVYYCNARRSYFLRYGVNYWGQGTQVTVST | low polyreactivity
QVQLVESGGGLVQAGGSLRLSCAASGLIFQVYDMGWYRQAPGKERELVAAISSGSNTNYADSVKGRFTISRDNAKNTVYLQMNSLKPEDTAVYYCAASWGYGALTPDMGYWGQGTQVTVSS | low polyreactivity
QVQLVVSGGGLVQAGGSLRLSCAASGGTFGGYAMGWYRQAPGKERELVAVITQRGGSTSYADSVKGRFTISRDNAKNTVYLQLNSQKREDTAVYYCNASAWLVVARTRYGYWGQGTQVTVSS | low polyreactivity
QVQLVESGGGLVQAGGSLRLSCAASGRIFVAYAMGWYRQAPGKERELVAAITWSGTSTYADSVKGRFTISRDNAKNTVYLQMNSLKPEDTAVYYCAKKAIVSDQWDKYDYWGQGTQVTVSS | low polyreactivity
QVQLVESGGGLVQAGGSLRLSCAASGFTFRYNTMGGYRQAPGKERELVAAISSSGSSTYYADSVKGRFTISRDNAKNTVYLQMNSLKPEDTAVYYCNAVHRRTRYGYWGQGTQVTVSS | high polyreactivity
QVQLVESGGGLVQAGGSLRLSCAASGRIFVVYAMGWYRQAPGKERELVAAITGGGRTNYADSVKGRFTISRDNAKNTVYLQKNSLKPGDSAVYYCAAGTRSDARRYYYWGQGTQVTVSS | low polyreactivity
QVQLVESGGALVQAGGSLRLSCAASGFTFRTYAMGWYRQAPRKERELVADISGSGGSTYYADSVKGRFTISRDNPKNTVYLQMNSLKPEDTAVSYCAADYASWSNWGYEYWGQGTQVTVSS | high polyreactivity
QVQLVESGGGLVQAGGSLRLSCAASGRVLPPNAIGWYRQAPGKERELVAAINWSSGRTYYADSVKGRFTISRDYAKNSVYLQMNSLKPEDTAVYDCAKAYRYAYGYDYWGQGTQVTVSS | high polyreactivity
QVQLVESGGGLVQAGGSLRLSCAASGSIFYSYAMGGYRQAPGKERELVAAITDSGDSTYYADSVKGRFTISRDNAKNTVYLQMNSLKPEDTAVYYCAAGFYPYYYWGQGTQVTVSS | low polyreactivity
QVQLVESGGGLVQAGGSLRVSCAASGSIFPDNAMGWYRQAPGKERELVAAITRGGSTYYADSVKGRFTISRDNAKNTVYLQMNSLKPEDTAVYYCAARRRYLWSYDYWGQGTQVTVSS | high polyreactivity
QVQLVESGGGLVQAGGSLRLSCAASGSTFGYYTMGWYRQAPGKERELVAAISRSGGRTYYADSVKGRFTISRDNAKKAVYLQMNSLKPEVTAVFYCNADGTRYAGDDYWGQGTQVTVSS | high polyreactivity
QVQLVESGGGLVQAGGSLRLSCAASGSTFSVYAMGWYRQAPGKERELVAAISTSGGSTYYADSVKGRFTISRDNAKNTVYLQMNSLKTEDTAVYYCNAEYSGYIYPYSYPIYYWYDYWGQGTQVTVSS | high polyreactivity
QVQLVESRGGLVQAGGSVRLSFAASGRILKYNAMGWYRQAPGKERELVAAISYRGGSTYYADSVKGRFTISRDNAKNTVYLQMNSLKPEDTAVYYCAALTESTSYGYWGQGTQVTVSS | low polyreactivity
